Laboratory results taken from patent publication US20200237800.

Assays:
Experiment in all cases: pulldown
Conditions in all cases: sense/antisense normalized AUC more than 2-fold
[1] = target: FLG2 (Filaggrin-2) (Homo sapiens) (UniProt Q5D862)
[2] = target: ACLY (ATP-citrate synthase) (Homo sapiens) (UniProt P53396)
[3] = target: T1, SFPQ (splicing factor, proline- and glutamine-rich) (Homo sapiens) (UniProt P23246)
T1 sequence: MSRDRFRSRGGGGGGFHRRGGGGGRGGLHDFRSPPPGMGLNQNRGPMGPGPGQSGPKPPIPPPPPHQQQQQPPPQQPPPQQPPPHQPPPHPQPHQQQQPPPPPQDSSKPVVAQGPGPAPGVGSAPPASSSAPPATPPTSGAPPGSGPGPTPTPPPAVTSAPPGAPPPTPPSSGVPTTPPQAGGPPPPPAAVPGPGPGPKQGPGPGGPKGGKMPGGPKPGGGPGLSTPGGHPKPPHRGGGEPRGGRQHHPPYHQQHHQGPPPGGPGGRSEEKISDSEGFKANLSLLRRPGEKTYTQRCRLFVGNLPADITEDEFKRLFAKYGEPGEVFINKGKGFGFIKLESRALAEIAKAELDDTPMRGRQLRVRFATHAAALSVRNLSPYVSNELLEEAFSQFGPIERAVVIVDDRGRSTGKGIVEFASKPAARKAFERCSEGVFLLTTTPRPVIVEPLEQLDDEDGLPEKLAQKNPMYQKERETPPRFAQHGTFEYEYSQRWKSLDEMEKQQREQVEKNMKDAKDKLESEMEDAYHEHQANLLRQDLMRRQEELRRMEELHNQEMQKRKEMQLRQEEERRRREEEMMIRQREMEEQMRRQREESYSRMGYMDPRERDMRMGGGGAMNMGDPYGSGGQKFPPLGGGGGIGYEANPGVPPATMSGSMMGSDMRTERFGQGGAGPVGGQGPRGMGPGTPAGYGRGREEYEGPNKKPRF

Measured: binding signal (fraction of sense)

Sequence of ACLY (ATP-citrate synthase) (Homo sapiens) (P53396 whole entry): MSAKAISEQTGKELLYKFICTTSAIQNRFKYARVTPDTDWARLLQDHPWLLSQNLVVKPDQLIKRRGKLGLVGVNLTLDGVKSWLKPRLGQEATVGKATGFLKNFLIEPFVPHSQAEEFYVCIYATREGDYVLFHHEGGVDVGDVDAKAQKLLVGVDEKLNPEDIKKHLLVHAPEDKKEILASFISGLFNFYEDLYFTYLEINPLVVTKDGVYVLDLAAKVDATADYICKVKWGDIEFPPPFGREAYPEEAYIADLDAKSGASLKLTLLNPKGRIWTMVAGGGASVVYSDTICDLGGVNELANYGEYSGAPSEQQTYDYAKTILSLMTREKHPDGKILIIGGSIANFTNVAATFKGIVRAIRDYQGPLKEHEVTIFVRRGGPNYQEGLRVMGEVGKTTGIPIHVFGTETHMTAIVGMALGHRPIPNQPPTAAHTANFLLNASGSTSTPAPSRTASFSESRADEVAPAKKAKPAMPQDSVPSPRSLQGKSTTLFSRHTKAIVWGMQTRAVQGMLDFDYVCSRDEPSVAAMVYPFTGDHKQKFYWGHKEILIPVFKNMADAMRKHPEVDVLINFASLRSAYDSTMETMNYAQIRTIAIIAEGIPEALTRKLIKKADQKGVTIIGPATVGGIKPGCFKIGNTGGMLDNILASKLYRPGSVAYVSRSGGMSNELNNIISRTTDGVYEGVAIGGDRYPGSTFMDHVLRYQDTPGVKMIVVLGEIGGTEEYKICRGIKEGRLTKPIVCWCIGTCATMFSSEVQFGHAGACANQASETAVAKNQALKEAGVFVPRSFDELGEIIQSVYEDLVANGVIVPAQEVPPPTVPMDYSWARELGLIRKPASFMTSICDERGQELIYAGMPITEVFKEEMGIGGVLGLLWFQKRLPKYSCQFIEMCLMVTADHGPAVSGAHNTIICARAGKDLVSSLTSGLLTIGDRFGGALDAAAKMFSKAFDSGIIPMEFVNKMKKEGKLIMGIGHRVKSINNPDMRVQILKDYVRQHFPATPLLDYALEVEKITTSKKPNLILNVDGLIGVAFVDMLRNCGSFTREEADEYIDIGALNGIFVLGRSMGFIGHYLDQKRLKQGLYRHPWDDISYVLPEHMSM
Sequence of FLG2 (Filaggrin-2) (Homo sapiens) (Q5D862 whole entry): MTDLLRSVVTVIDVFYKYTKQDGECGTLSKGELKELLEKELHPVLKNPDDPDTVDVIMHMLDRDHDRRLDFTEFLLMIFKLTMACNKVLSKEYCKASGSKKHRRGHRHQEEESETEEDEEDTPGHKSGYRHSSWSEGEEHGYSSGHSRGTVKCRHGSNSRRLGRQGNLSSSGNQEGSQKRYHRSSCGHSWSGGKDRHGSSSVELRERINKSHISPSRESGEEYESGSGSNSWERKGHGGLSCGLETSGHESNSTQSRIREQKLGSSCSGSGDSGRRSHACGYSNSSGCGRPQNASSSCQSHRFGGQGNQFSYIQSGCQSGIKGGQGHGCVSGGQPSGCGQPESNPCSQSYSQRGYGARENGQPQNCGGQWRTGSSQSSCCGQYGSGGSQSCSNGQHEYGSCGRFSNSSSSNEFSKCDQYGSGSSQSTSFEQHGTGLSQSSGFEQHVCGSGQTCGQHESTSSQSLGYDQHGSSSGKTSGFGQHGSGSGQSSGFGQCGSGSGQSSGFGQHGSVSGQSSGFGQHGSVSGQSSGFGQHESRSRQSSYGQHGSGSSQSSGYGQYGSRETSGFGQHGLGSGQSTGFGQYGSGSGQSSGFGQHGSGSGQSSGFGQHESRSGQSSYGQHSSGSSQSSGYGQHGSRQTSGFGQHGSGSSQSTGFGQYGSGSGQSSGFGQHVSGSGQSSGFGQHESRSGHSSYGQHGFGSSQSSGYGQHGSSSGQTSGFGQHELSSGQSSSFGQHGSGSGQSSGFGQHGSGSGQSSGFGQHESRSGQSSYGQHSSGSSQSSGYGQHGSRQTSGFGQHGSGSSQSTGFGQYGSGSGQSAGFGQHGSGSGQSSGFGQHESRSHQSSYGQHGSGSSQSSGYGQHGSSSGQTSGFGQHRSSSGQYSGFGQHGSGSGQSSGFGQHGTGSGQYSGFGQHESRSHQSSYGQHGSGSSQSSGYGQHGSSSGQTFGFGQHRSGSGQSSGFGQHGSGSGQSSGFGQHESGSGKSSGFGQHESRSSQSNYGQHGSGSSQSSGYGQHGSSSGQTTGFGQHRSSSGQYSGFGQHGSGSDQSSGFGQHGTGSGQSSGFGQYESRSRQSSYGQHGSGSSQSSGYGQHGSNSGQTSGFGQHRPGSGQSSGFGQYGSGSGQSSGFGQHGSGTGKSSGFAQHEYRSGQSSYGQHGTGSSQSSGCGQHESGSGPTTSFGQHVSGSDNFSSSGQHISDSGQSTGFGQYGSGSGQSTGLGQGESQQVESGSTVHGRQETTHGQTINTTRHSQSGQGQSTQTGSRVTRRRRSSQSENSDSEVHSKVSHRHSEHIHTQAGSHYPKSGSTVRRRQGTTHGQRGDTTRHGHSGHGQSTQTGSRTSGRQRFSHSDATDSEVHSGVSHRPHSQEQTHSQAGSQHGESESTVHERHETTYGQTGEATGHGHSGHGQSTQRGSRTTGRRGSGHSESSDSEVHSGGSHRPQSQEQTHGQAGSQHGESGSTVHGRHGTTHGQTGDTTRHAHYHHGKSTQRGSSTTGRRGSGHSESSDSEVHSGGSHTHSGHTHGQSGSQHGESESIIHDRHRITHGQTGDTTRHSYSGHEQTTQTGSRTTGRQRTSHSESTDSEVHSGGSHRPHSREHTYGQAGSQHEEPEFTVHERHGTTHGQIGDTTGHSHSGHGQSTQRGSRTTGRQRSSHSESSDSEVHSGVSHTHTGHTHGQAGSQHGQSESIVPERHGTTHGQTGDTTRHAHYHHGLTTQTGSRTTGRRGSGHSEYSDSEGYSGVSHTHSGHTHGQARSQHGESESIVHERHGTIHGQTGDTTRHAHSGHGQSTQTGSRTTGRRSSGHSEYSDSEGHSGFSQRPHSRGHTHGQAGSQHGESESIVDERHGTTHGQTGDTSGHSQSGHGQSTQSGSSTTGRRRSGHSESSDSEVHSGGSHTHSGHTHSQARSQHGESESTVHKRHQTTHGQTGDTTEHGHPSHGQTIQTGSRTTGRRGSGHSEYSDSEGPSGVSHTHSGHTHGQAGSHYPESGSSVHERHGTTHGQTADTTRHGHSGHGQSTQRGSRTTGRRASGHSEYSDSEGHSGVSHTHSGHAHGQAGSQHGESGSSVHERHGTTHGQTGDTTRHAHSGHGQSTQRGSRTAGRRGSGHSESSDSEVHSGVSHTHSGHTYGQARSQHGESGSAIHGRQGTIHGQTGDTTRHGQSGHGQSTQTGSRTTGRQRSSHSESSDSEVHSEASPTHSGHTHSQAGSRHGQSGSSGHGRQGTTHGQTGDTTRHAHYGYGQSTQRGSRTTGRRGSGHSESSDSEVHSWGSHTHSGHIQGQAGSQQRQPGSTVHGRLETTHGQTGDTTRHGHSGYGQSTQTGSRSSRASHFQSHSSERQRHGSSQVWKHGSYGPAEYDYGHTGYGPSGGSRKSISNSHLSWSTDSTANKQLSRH

lnc-FAM164A1 antisense RNA
< 0.5: all assays above
